Reference: the supplement of paper PMC10065799, “High-throughput profiling of sequence recognition by tyrosine kinases and SH2 domains using bacterial peptide display” (eLife, 2023)

How the values were obtained:
FGFR1 = FGFR1 (UniProt P11362); experiment: phosphorylation enrichment, bacterial display (enrichment ratio); higher = better substrate or ligand; peptides without Tyr show the background
EPHB1 = EPHB1 (UniProt P54762); experiment: as above
AncSZ = experiment: as above
MERTK = MERTK (UniProt Q12866); experiment: as above
Sequence of MERTK (Q12866 whole entry, looked up): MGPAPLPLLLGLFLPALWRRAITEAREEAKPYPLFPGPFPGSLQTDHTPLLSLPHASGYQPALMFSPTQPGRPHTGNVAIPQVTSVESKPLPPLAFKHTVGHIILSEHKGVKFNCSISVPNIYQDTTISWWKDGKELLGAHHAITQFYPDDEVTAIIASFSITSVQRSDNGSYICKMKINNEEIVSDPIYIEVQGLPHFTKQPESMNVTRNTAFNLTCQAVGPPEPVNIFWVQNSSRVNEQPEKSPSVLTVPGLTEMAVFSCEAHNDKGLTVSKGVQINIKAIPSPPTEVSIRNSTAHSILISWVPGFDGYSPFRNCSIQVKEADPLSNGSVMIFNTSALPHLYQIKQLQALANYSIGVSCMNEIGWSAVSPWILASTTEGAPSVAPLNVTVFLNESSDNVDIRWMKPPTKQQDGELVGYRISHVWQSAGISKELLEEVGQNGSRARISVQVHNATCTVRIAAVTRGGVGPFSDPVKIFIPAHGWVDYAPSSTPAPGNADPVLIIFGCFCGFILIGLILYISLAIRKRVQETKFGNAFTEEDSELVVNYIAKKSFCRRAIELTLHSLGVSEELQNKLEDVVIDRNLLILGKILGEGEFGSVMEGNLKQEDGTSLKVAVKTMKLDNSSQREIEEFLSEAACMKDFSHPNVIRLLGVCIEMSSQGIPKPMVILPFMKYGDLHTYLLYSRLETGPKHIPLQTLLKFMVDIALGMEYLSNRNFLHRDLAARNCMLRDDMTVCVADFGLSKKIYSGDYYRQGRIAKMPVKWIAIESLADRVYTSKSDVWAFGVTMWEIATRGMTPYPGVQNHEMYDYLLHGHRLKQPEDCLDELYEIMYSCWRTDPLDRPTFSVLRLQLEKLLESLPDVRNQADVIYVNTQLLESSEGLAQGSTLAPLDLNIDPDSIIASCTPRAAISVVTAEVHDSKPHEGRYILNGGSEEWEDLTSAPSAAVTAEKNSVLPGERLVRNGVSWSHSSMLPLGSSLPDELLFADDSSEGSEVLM

Fyn = Fyn (UniProt P06241); experiment: as above
Sequence of Fyn (P06241 whole entry, looked up): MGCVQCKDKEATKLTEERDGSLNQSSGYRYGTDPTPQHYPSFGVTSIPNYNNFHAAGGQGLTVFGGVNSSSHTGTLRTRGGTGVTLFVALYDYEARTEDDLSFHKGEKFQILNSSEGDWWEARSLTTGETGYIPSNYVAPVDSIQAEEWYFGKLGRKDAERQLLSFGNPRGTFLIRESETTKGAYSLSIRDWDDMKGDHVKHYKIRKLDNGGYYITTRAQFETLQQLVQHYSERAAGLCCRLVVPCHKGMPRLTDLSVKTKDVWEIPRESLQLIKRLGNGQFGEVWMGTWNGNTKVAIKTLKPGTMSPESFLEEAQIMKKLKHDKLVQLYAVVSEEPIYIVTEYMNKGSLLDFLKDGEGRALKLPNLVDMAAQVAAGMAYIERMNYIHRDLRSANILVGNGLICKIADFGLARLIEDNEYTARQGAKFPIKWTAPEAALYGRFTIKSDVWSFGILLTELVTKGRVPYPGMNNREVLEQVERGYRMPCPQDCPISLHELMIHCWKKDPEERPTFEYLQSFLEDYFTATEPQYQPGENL

Fes = Fes (UniProt P07332); experiment: as above
Sequence of Fes (P07332 whole entry, looked up): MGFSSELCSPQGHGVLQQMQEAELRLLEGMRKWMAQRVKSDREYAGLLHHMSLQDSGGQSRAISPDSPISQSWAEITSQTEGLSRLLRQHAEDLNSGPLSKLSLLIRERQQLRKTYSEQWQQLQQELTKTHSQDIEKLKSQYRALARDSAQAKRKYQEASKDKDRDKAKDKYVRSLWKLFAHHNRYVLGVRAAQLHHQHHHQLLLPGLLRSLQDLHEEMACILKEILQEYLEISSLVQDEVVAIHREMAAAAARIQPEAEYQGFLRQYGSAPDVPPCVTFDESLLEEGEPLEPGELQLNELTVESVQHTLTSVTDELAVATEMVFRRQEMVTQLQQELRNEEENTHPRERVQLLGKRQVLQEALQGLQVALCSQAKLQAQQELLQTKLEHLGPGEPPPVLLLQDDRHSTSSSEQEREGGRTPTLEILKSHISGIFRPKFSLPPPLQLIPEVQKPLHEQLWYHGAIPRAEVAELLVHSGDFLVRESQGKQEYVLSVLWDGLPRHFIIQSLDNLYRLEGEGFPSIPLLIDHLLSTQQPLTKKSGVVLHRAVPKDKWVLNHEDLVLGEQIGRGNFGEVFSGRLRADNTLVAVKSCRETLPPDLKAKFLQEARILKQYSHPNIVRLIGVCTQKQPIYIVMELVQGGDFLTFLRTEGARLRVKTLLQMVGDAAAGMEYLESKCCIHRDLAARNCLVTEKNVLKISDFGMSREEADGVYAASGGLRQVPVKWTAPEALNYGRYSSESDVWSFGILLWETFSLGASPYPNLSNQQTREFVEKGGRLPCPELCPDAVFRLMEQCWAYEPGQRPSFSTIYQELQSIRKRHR

c-Abl (mouse) = experiment: as above
Hck = Hck (UniProt P08631); experiment: as above
Sequence of Hck (P08631 whole entry, looked up): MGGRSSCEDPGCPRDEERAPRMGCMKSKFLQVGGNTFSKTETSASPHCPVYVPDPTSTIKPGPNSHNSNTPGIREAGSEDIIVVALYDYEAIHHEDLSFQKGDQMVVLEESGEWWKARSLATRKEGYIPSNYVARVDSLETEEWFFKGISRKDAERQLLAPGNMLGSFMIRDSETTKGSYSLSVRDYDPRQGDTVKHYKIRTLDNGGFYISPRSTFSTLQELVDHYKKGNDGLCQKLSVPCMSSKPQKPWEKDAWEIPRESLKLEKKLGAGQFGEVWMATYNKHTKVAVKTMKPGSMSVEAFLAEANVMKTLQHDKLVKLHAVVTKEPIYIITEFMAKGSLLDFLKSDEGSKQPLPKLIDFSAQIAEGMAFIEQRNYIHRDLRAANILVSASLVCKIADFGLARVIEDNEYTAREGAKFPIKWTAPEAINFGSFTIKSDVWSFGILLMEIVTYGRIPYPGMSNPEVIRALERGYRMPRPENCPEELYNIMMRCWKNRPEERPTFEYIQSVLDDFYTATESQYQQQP

Jak2 = Jak2 (UniProt O60674); experiment: as above
EPHB2 = EPHB2 (UniProt P29323); experiment: as above
Fer (mouse) = experiment: as above
c-Src = experiment: as above
FGFR3 = FGFR3 (UniProt P22607); experiment: as above
Sequence of FGFR3 (P22607 whole entry, looked up): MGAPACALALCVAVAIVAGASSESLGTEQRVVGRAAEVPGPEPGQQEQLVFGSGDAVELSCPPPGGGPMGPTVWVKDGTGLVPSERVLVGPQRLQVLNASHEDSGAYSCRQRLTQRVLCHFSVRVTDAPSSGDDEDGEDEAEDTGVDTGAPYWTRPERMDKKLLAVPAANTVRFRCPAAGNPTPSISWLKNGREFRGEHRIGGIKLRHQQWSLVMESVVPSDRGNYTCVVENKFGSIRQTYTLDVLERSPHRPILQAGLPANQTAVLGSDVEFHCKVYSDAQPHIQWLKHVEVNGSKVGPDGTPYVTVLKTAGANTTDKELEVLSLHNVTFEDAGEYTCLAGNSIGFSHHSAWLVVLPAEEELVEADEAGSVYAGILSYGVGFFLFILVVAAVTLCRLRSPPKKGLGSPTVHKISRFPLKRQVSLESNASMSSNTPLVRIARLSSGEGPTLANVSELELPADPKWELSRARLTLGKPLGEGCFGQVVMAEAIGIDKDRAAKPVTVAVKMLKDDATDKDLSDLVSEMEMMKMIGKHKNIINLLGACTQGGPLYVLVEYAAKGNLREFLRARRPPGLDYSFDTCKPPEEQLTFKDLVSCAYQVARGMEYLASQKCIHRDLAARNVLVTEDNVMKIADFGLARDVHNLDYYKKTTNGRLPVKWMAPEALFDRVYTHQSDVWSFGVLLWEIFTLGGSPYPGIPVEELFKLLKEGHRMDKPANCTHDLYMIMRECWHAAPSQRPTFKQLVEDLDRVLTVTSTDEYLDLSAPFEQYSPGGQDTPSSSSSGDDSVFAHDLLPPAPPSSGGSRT

c-Src SH2 = experiment: SH2 binding enrichment of the phosphorylated peptide, bacterial display (enrichment ratio); higher = better substrate or ligand; peptides without Tyr show the background
SHP2-C SH2 = experiment: as above
Grb2 SH2 = Grb2 SH2 (UniProt P62993); experiment: as above
Sequence of Grb2 SH2 (P62993 whole entry, looked up, the tested form may be a part): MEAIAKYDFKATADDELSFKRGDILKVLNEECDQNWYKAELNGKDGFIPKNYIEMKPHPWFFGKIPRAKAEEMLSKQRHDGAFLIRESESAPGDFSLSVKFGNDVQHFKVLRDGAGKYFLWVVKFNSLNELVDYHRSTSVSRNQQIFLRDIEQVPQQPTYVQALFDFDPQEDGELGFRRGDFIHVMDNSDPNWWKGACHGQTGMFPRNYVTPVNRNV
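For SH2 binding enrichment of the phosphorylated peptide, bacterial display in this document: peptide library displayed on the E. coli surface as eCPX fusions, selected cells deep-sequenced, score is each peptide's frequency after selection divided by its frequency in the input.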
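For phosphorylation enrichment, bacterial display in this document: 11-residue human phosphosite peptides and single-mutation variants displayed on the E. coli surface, counted by deep sequencing, each peptide's frequency after selection divided by its frequency in the unselected input library; frequency after pTyr selection over input frequency; kinase dosed for 20-30% of maximal phosphorylation in three min.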

Sequence of EPHB1 (P54762 whole entry, looked up): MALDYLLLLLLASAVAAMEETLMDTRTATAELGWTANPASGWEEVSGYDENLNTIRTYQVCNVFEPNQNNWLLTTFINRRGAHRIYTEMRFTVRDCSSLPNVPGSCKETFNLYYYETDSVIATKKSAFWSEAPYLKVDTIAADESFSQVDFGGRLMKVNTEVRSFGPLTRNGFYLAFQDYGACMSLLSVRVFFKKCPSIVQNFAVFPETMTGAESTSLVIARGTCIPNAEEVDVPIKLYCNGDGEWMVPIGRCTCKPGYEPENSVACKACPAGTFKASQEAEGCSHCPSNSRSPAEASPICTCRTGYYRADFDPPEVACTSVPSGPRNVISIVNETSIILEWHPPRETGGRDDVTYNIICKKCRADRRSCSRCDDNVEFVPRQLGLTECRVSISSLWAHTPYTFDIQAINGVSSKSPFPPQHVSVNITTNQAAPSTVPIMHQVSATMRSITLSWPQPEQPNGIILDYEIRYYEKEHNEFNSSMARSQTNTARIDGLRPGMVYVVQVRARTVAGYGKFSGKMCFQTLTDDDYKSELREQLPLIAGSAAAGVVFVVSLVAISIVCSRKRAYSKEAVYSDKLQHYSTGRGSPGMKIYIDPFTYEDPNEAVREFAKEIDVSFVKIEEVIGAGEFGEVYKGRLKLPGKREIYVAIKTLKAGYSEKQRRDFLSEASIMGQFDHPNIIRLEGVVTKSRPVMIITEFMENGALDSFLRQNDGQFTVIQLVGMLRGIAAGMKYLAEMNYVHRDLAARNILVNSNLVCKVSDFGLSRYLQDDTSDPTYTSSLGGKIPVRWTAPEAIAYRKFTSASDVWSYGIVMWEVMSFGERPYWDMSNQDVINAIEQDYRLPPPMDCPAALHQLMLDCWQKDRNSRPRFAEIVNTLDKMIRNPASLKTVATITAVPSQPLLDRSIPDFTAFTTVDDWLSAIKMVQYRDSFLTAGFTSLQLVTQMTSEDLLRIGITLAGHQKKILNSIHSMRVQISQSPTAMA

Sequence	phosphorylation enrichment (FGFR1)	phosphorylation enrichment (EPHB1)	phosphorylation enrichment (AncSZ)	phosphorylation enrichment (MERTK)	phosphorylation enrichment (Fyn)	phosphorylation enrichment (Fes)	phosphorylation enrichment (c-Abl (mouse))	phosphorylation enrichment (Hck)	phosphorylation enrichment (Jak2)	phosphorylation enrichment (EPHB2)	phosphorylation enrichment (Fer (mouse))	phosphorylation enrichment (c-Src)	phosphorylation enrichment (FGFR3)	SH2 binding enrichment (c-Src SH2)	SH2 binding enrichment (SHP2-C SH2)	SH2 binding enrichment (Grb2 SH2)
FYDANCDGKEY [MAPRE2_Y162_Y162C]	0.497	0.651	1.21	0.539	0.612	1.4	0.81	0.563	1.13	0.682	0.527	0.642	0.922	0.617	0.641	1.03
RSSKMYPKTRS [LPL_Y329_L330P]	0.547	0.359	0.601	0.562	0.502	0.675	1.2	0.509	1.43	0.151	0.342	0.614	0.624	0.486	0.556	0.916
QSSALYEDHFL [ASS1_Y83_R86H_YF]	0.654	5.92	1.07	2.51	1.36	1.47	1.04	1.57	0.898	4.17	17.9	2.12	0.46	0.48	1.13	0.809
QMIETYFDFRV [NSMF_Y506_L511V]	5.84	2.29	1.77	1.09	3.37	1.39	0.887	2.77	2.78	1.46	0.679	4.53	4.49	0.581	0.607	0.642
EQKRYYNAMKK [SCN5A_Y1495_K1493R]	0.348	0.356	0.586	0.547	0.457	0.576	0.447	0.312	0.605	0.317	0.399	0.371	0.465	1.19	0.899	1.05
HNQDGYSFPSR [LDLR_Y845_YF]	0.906	0.762	1.94	1.15	0.996	1.45	1.31	0.748	1.55	0.939	0.871	1.02	1.08	4.23	0.76	1.06
NVVQEYERVII [NPHS2_Y131_K126N]	0.59	2.13	1.17	0.442	0.47	0.942	0.633	0.589	0.772	2.22	4.44	0.485	0.668	0.557	0.831	0.978
LTSVKYLLSAT [GSDMC_Y26_P23S]	0.482	0.465	0.703	0.376	0.418	0.635	0.437	0.466	0.818	0.566	0.406	0.393	0.541	0.679	0.801	1.03
SSENPYATIKD [MEGF10_Y1030]	0.496	0.458	0.87	0.506	1.52	0.897	0.741	1.65	0.876	0.597	0.944	2.31	0.53	14	9.45	0.985
FSVDGYDSSVR [KCNQ1_Y461]	0.427	0.519	0.693	0.311	0.461	0.773	0.648	0.393	0.672	0.513	0.36	0.37	0.53	0.688	0.727	0.948
GMRHGYGVRQS [JPH2_Y141]	0.355	0.38	0.451	0.384	0.369	0.556	0.668	0.36	0.457	0.373	0.328	0.326	0.405	1.15	1.41	1.53
TSESSYFKSLN [NGEF_Y288_A286S_YF]	0.41	0.433	0.766	0.362	0.395	0.91	0.636	0.455	0.67	0.37	0.436	0.411	0.705	0.437	0.553	0.776
FQEKGYNKEPR [CHRND_Y38_L42P]	0.587	0.738	0.895	0.644	0.649	0.868	0.912	0.655	0.691	0.627	0.571	0.57	0.569	0.67	0.981	1
QITQVCGFFDE [PPP2CA_Y127_Y127C_YF]	0.5	0.645	1.56	0.812	0.434	1.95	1.65	0.645	1.92	0.871	0.612	0.599	1.24	0.521	0.587	1.03
EEGNPYYSGAR [MCCC2_Y520_S523G]	0.542	0.409	0.898	0.449	0.959	0.917	0.597	1.01	0.719	0.551	0.425	1.83	0.552	0.714	0.538	0.9
GTFVIYVRFGG [FLNB_Y1687_YF]	0.52	0.392	1.15	0.379	0.353	1.18	0.854	0.433	0.711	0.49	0.4	0.465	0.731	0.782	0.968	1.34
LPEHPYHSRPR [NDUFA8_Y142_N140H]	1.02	0.861	1.97	1.17	2.04	3.08	0.828	1.9	0.823	1.57	1.03	1.27	2.71	0.704	0.538	0.958

Sequence	phosphorylation enrichment (FGFR1)	phosphorylation enrichment (EPHB1)	phosphorylation enrichment (AncSZ)	phosphorylation enrichment (MERTK)	phosphorylation enrichment (Fyn)	phosphorylation enrichment (Fes)	phosphorylation enrichment (c-Abl (mouse))	phosphorylation enrichment (Hck)	phosphorylation enrichment (Jak2)	phosphorylation enrichment (EPHB2)	phosphorylation enrichment (Fer (mouse))	phosphorylation enrichment (c-Src)	phosphorylation enrichment (FGFR3)	SH2 binding enrichment (c-Src SH2)	SH2 binding enrichment (SHP2-C SH2)	SH2 binding enrichment (Grb2 SH2)
FSLIHYASIVD [MYH7_Y582_G584S]	0.479	0.83	1.07	0.475	0.488	1.29	0.847	0.575	1.13	0.692	0.714	0.442	1.01	7.83	37.2	1.08
SLAARYFNWVS [FLT4_Y1230_YF]	0.555	0.586	1.15	0.636	0.494	1.26	0.822	0.532	0.935	0.698	0.479	0.431	0.718	1.15	1.39	2.68
CTTTHYNYMCN [TP53_Y234_I232T]	0.551	0.563	0.708	0.391	0.441	0.722	0.484	0.497	0.58	0.592	0.446	0.424	0.533	10.6	3.73	0.951
INQGPYENRSV [ATP6V1B1_Y462]	0.421	0.381	0.558	0.38	0.38	0.622	0.475	0.423	0.47	0.568	0.4	0.435	0.441	0.532	0.643	1.2
GNHISYYQSDG [CACNA1C_Y1757_V1755I]	0.655	0.668	0.821	0.411	0.514	0.569	0.403	0.397	0.484	0.4	0.367	0.496	0.569	2.32	0.751	0.885
SPFAVYLFFTF [RPGRIP1_Y826_R827L_YF]	0.467	0.434	0.99	0.34	0.477	0.925	0.754	0.361	0.891	0.744	0.335	0.425	0.63	0.519	0.729	1.09
QEGPEYWDQQT [HLA-A_Y83_E87Q]	1.01	1.31	2.09	0.649	0.741	2.21	1.78	0.58	2.33	0.967	0.884	0.937	1.21	0.421	0.612	0.664
ANNPLYKEVTS [ITGB3_Y773_A776V]	0.495	0.506	0.695	0.481	0.428	0.797	0.584	0.551	0.691	0.409	0.486	0.467	0.58	0.733	0.563	1.07
QLHEHYKIHKE [NSMAF_Y626]	0.311	0.455	0.748	0.878	0.697	0.95	0.623	0.526	0.641	0.597	0.563	0.777	0.772	0.637	0.747	0.985
RSSGGYEPRGC [FUS_Y239_R244C]	0.371	0.227	0.439	0.261	0.351	0.533	0.539	0.258	0.499	0.274	0.277	0.376	0.538	0.509	0.872	0.913
GVSYIYTIDGS [DCX_Y105_R102S]	0.494	0.618	1.11	1.28	5.77	1.08	0.663	2.71	0.944	0.498	0.412	4.85	0.711	0.726	16.3	0.794
FMYKVYSDPQP [FGFR1_Y280_C277Y]	0.461	0.778	1.03	0.5	0.526	1.16	0.521	0.569	0.819	0.799	0.532	0.495	0.642	0.768	0.854	0.8
KVPAIYGVGTR [CPS1_Y162_D165G]	0.362	0.424	0.47	0.527	2.27	0.576	0.923	5.68	0.562	0.391	0.377	2.44	0.402	0.699	0.615	0.948
FKEVVYQAMEE [TACC3_Y684_E680K]	0.771	1.06	1.55	1.62	2.37	1.05	1.11	1.66	1.04	0.814	0.829	2.88	0.884	0.918	0.994	0.774
QEALEYFMKQM [PIK3CA_Y1038]	0.627	0.644	1.36	0.584	0.696	1.22	1.19	0.39	1.49	0.624	0.584	0.675	0.704	0.636	0.698	0.667
SIDLGYHKDLQ [NF1_Y1169_G1166D]	0.607	0.46	1.17	0.531	0.51	0.777	0.557	0.454	0.856	0.478	0.503	0.552	0.485	0.544	0.486	0.661
